From PMC7229837, “Molecular architecture of the DNA-binding sites of the P-loop ATPases MipZ and ParA from Caulobacter crescentus”

Tests used:
MipZ R198A = target: T1, MipZ R198A (Caulobacter crescentus, UniProt Q9A6C9 1-278, R198A); test: MST; hardly any binding; EMSA: 10 mM HEPES/NaOH pH 7.2, 150 mM NaCl, 10 mM MgCl2, 0.05% Tween 20, 0.46 mM ATPgS, room temp; BLI: 50 mM HEPES/NaOH pH 7.2, 50 mM NaCl, 5 mM MgCl2, 0.1 mM; settings: protein: recombinant; tags: C-terminal His6 (pET21a); chain copies: 2; label: Cy3 (5') on strand 1; blunt
T1 sequence: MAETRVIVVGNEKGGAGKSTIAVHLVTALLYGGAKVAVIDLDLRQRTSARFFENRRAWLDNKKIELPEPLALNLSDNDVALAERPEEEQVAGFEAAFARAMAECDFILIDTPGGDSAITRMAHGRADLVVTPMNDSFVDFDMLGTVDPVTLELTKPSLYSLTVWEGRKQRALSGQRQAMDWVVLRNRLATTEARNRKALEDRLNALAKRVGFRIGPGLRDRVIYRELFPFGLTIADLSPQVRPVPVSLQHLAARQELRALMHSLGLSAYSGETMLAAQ

MipZ R221A = target: T2, MipZ R221A (Caulobacter crescentus, UniProt Q9A6C9 1-278, R221A); test: as above; settings: protein: recombinant; tags: C-terminal His6 (pET21a); chain copies: 2; label: Cy3 (5') on strand 1; blunt
T2 sequence: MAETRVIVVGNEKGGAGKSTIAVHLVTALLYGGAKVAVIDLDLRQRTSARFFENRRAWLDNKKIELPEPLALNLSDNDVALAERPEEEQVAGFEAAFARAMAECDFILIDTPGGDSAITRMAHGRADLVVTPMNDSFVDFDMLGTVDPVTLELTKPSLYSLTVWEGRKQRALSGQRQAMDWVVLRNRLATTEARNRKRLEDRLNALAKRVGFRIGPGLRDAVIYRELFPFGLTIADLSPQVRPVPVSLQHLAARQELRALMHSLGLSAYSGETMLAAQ

MipZ R194A = target: T3, MipZ R194A (Caulobacter crescentus, UniProt Q9A6C9 1-278, R194A); test: as above; settings: protein: recombinant; tags: C-terminal His6 (pET21a); chain copies: 2; label: Cy3 (5') on strand 1; blunt
T3 sequence: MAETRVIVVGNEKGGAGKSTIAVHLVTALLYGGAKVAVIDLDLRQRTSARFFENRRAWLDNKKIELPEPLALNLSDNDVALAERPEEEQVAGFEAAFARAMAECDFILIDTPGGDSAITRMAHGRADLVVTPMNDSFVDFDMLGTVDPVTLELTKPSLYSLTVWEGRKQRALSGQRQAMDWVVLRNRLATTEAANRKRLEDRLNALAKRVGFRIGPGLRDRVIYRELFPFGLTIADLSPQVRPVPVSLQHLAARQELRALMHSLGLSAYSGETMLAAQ

MipZ K13A = target: T4, MipZ K13A (Caulobacter crescentus, UniProt Q9A6C9 1-278, K13A); test: MST; low-affinity group, KD >> 10 uM; EMSA: 10 mM HEPES/NaOH pH 7.2, 150 mM NaCl, 10 mM MgCl2, 0.05% Tween 20, 0.46 mM ATPgS, room temp; BLI: 50 mM HEPES/NaOH pH 7.2, 50 mM NaCl, 5 mM MgCl2, 0.1 mM; settings: protein: recombinant; tags: C-terminal His6 (pET21a); label: Cy3 (5') on strand 1; blunt
T4 sequence: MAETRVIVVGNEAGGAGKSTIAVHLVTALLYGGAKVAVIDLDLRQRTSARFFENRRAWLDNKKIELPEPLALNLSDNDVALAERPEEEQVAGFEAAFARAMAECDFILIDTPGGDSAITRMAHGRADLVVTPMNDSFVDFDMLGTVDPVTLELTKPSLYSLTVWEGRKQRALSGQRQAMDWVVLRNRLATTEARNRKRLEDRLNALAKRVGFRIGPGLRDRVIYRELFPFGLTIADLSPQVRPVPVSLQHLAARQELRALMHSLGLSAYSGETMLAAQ

MipZ R219A = target: T5, MipZ R219A (Caulobacter crescentus, UniProt Q9A6C9 1-278, R219A); test: as above; settings: protein: recombinant; tags: C-terminal His6 (pET21a); chain copies: 2; label: Cy3 (5') on strand 1; blunt
T5 sequence: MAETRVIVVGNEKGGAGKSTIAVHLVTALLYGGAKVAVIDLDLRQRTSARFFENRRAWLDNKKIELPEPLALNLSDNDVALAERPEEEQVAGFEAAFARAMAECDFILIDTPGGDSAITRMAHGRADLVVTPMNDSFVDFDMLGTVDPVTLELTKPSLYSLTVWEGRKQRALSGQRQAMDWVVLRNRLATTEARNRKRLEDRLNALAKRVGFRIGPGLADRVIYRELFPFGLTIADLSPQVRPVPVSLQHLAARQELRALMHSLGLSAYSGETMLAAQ

MipZ L237A = target: T6, MipZ L237A (Caulobacter crescentus, UniProt Q9A6C9 1-278, L237A); test: as above; settings: protein: recombinant; tags: C-terminal His6 (pET21a); chain copies: 2; label: Cy3 (5') on strand 1; blunt
T6 sequence: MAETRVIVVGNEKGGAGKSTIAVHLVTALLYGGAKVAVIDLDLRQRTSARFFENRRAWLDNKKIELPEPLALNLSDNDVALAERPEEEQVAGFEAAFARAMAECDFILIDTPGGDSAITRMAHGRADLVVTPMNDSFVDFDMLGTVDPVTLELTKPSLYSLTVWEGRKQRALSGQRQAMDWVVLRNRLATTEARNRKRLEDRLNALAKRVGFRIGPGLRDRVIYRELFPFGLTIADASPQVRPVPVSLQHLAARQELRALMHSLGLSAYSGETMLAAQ

B1: rand-Cy3/rand-rev 26 bp (dsDNA)
DNA 1: GAGGCAGACTAGATCTTCTAGTTCGG
DNA 2: CCGAACTAGAAGATCTAGTCTGCCTC
no binding: binding result (MipZ R198A) | binding result (MipZ R221A) | binding result (MipZ R194A)
> 10 µM: Kd (MipZ K13A) | Kd (MipZ R219A) | Kd (MipZ L237A)
